Reference: patent publication US20240279318A1 (NANJING LEGEND BIOTECH, published 2024)
Residue numbers refer to the chain shown, from its start.

B1: AS170036 VL1VH1-VLH98V (scFv)
scFv: QSALTQPRSVSGSPGQSVTISCAGTSSDVGSENYVSWYQQHPGKAPKLMIYQVNKRASGVPDRFSGSKSGNTASLTISGLQAEDEADYYCASYRSSDVNIVFGGGTKLTVLGGGGSGGGGSGGGGSEVQLVESGGGLVQPGGSLRLSCAASGFTFSSYAMSWVRQAPGKGLEWVSTINSGTGSPYYADSVKGRFTISRDNSKNTLYLQMNSLRAEDTAVYYCAKNFFDGSWFLGPPAMDYWGQGTLVTVSSHHHHHH
B2: AS170036 VL1VH1-VLE32W (scFv)
scFv: B1 scFv with E32W, V98H
B3: AS170036 VL1VH1-VLH98A (scFv)
scFv: B1 scFv with V98A
B4: AS170036 VL1VH1-VLH98P (scFv)
scFv: B1 scFv with V98P
B5: AS170036 VL1VH2 scFv-mIgG2aFc (Fc fusion, not shown: a dimerising Fc or GST)
scFv: QSALTQPRSVSGSPGQSVTISCAGTSSDVGSENYVSWYQQHPGKAPKLMIYQVNKRASGVPDRFSGSKSGNTASLTISGLQAEDEADYYCASYRSSDHNIVFGGGTKLTVLGGGGSGGGGSGGGGSEVQLVESGGGLVQPGGSLRLSCTASGFTFSSYAMSWVRQAPGKGLEWVSTINSGTGSPYYADSVKGRFTISRDNSKNTLYLQMNSLRAEDTAMYYCAKNFFDGSWFLGPPAMDYWGQGTLVTVSS
B6: AS170036 VL2VH1 scFv-mIgG2aFc (Fc fusion, not shown: a dimerising Fc or GST)
scFv: B5 scFv with M49L, V60I, T149A, M219V
B7: AS170036 VL2VH2 scFv-mIgG2aFc (Fc fusion, not shown: a dimerising Fc or GST)
scFv: B5 scFv with M49L, V60I

These binders were tested against T1, AFP158/HLA-A*02:01 complex (human) (assay: SPR; vs AS170036 VL1VH1).
T1 construct: biotinylated on the BSP by BirA for ELISA and panning; also called biotinylated AFP158/HLA-A*02:01 complex; Bio-AFP158

Q: How did the Affinity increase turn out when B1 was run?
A: > 2 fold

Q: How did the Affinity increase turn out when B2 was run?
A: > 2 fold

Q: With B3 as the binder, how does the Affinity increase read?
A: > 2 fold

Q: With B4 as the binder, how does the Affinity increase read?
A: > 2 fold

Each binder was assayed against RP1 peptide/HLA-A*02:01 complex (recombinant) (human, UniProt P16213 21-119 (Pongo pygmaeus entry)) (assay: SPR).

Q: Does B1 bind?
A: no binding

Q: Does B2 bind?
A: no binding

Q: Does B3 bind?
A: no binding

Q: Does B4 bind?
A: no binding

Each binder was assayed against ZNF566 peptide/HLA-A*02:01 complex (recombinant) (human) (assay: SPR).

Q: Does B1 bind?
A: no binding

Q: Does B2 bind?
A: no binding

Q: Does B3 bind?
A: no binding

Q: Does B4 bind?
A: no binding

The binders below were run against OR6C1 peptide/HLA-A*02:01 complex (recombinant) (human) (assay: SPR).

Q: Does B1 bind?
A: no binding

Q: Does B2 bind?
A: no binding

Q: Does B3 bind?
A: no binding

Q: Does B4 bind?
A: no binding

These binders were tested against ARNTL peptide/HLA-A*02:01 complex (recombinant) (human) (assay: SPR).

Q: Does B1 bind?
A: no binding

Q: Does B2 bind?
A: no binding

Q: Does B3 bind?
A: no binding

Q: Does B4 bind?
A: no binding

These binders were tested against PTP4A1 peptide/HLA-A*02:01 complex (recombinant) (human) (assay: SPR).

Q: Does B1 bind?
A: no binding

Q: Does B2 bind?
A: no binding

Q: Does B3 bind?
A: no binding

Q: Does B4 bind?
A: no binding

The binders below were run against RCL1 peptide/HLA-A*02:01 complex (recombinant) (human, UniProt P16213 21-119 (Pongo pygmaeus entry)) (assay: SPR).

Q: Does B1 bind?
A: no binding

Q: Does B2 bind?
A: no binding

Q: Does B3 bind?
A: no binding

Q: Does B4 bind?
A: no binding

The binders below were run against BRCA2 peptide/HLA-A*02:01 complex (recombinant) (human) (assay: SPR).

Q: Does B1 bind?
A: no binding

Q: Does B2 bind?
A: no binding

Q: Does B3 bind?
A: no binding

Q: Does B4 bind?
A: no binding

What follows are binders tested against OR1I1 peptide/HLA-A*02:01 complex (recombinant) (human) (assay: SPR).

Q: Does B1 bind?
A: no binding

Q: Does B2 bind?
A: no binding

Q: Does B3 bind?
A: no binding

Q: Does B4 bind?
A: no binding

Each binder was assayed against OR51B6 peptide/HLA-A*02:01 complex (recombinant) (human) (assay: SPR).

Q: Does B1 bind?
A: no binding

Q: Does B2 bind?
A: no binding

Q: Does B3 bind?
A: no binding

Q: Does B4 bind?
A: no binding

Each binder was assayed against ATG9A peptide/HLA-A*02:01 complex (recombinant) (human) (assay: SPR).

Q: Does B1 bind?
A: no binding

Q: Does B2 bind?
A: no binding

Q: Does B3 bind?
A: no binding

Q: Does B4 bind?
A: no binding

These binders were tested against NR2E1 peptide/HLA-A*02:01 complex (recombinant) (human) (assay: SPR).

Q: Does B1 bind?
A: no binding

Q: Does B2 bind?
A: no binding

Q: Does B3 bind?
A: no binding

Q: Does B4 bind?
A: no binding

The binders below were run against CDC14A peptide/HLA-A*02:01 complex (recombinant) (human) (assay: SPR).

Q: Does B1 bind?
A: no binding

Q: Does B2 bind?
A: no binding

Q: Does B3 bind?
A: no binding

Q: Does B4 bind?
A: no binding

Each binder was assayed against T1, AFP158/HLA-A*02:01 complex (assay: SPR, scFv-mIgG2aFc from supernatant captured, complex as analyte).
Procedure: The binding affinity between selected antibodies and AFP158/HLA-A*02:01 complex was determined by surface plasmon resonance (SPR) on a BIAcore T200 instrument (GE Healthcare). The experiment was carried out as follows. The purified sdAb/scFv-mIgG2aFc protein were captured through mIgG2a-Fc onto the sensorchip. […] On-rate (kₐ) and off-rate (kd) were calculated based on association and dissociation curve, and were used to estimate the equilibrium dissociation constant (KD).
Humanized heavy chains and light chains were combined, and used to produce a series of humanized antibodies. These antibodies were synthesized as scFv-mIgG2aFc and transiently produced using HEK293 cells. The antibodies in the supernatant were subjected to SPR affinity assessment.

Q: Which results are given for B5?
A: Kd: 380 nM; koff: 0.071 s⁻¹; kon: 190000 M⁻¹ s⁻¹

Q: What does the source list for B6?
A: Kd: 340 nM; koff: 0.095 s⁻¹; kon: 280000 M⁻¹ s⁻¹

Q: Which results are given for B7?
A: Kd: 390 nM; koff: 0.072 s⁻¹; kon: 190000 M⁻¹ s⁻¹
